From article PMC12272218 come the findings set out here.

The target in the assay is T1, Uracil-DNA Glycosylase (UDG) (UniProt P12295).
T1 sequence: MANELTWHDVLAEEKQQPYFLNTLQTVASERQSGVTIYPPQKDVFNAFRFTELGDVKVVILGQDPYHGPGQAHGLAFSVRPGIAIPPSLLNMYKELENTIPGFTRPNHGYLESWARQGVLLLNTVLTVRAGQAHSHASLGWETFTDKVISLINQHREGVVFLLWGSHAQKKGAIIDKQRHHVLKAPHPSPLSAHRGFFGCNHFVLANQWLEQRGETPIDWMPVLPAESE

In the case of “uracil glycosylase inhibitor (UGI) (from UniProt P14739 1-84) (natural protein)”, the half-maximal inhibitory concentration of UGI on UDG activity, read by fluorescence of the dU-containing circular crRNA-assisted CRISPR-Cas12a system turned out to be 0.087 U/mL.
